According to US20100209425A1:

Assays:
[1] = molecular target: hen-egg lysozyme (HEL) from chicken egg white (chicken) (UniProt P00698); test: flow cytometry titration of biotinylated HEL on yeast-displayed D1.3 scFv; PBS with Triton X-100
[2] = molecular target: hen-egg lysozyme (HEL) from chicken egg white (chicken) (UniProt P00698); test: flow cytometry titration of biotinylated HEL on yeast-displayed D1.3 scFv; PBS with BSA
[3] = molecular target: hen-egg lysozyme (HEL) from chicken egg white (chicken) (UniProt P00698); test: yeast display immunoprecipitation with 5x10^7 yeast from RBE4 lysate holding 34 nM HEL, gel densitometry
[4] = molecular target: hen-egg lysozyme (HEL) from chicken egg white (chicken) (UniProt P00698); test: flow cytometry titration of biotinylated HEL on yeast-displayed D1.3 scFv; PBS with n-octyl-beta-D-glucopyranoside

Chain of UniProt P00698 (P00698 19-147): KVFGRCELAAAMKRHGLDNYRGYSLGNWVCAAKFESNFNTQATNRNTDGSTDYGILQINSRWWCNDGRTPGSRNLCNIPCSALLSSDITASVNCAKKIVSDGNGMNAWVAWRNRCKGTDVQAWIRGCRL

Kd [1]: 0.488 nM
Kd [2]: 1.07 nM
percent of the theoretical immunoprecipitation yield [3]: 70%
Kd [4]: 2.61 nM
Substance: anti-hen egg lysozyme D1.3 scFv displayed on yeast
